Experimental data taken from publication PMC4319893, “Targeting Protein-Protein Interactions with Trimeric Ligands: High Affinity Inhibitors of the MAGUK Protein Family” (PLoS ONE, 2015).

Target: PSD-95 PDZ3 (human)
Assay: fluorescence polarisation; truncation study of CRIPT C-terminal peptides on PSD-95 PDZ3 and PSD-95 FL (S1 Table); probe not told

- affinity: > 50 µM
Binder: IETAV
